Publication PMC9861184

Each sequence was assayed on T1, SigW (ECF sigma factor, GST fusion) (Pseudomonas donghuensis HYS), ORF:b11b1795 (assay: EMSA). Conditions: EMSA: 0.3 uM DNA in 20 uL, 10 mM Tris-HCl pH 7.5, 150 mM NaCl, 2 mM DTT, 2 mM EDTA, 10% glycerol, 30 C 40 min; 6.8% native PAGE in 0.5x TBE on ice, EB stain.
T1 sequence: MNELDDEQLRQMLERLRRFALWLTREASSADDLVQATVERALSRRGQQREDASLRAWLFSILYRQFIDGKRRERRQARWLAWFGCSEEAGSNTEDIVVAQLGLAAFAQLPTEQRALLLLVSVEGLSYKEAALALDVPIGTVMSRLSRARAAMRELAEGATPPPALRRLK
With “CGAACTCATGGCCTGCCCCCGGGAACGGGCGCAGGGGCACGGTAAAACAGGTACAGGCGCATGGCTTCAGAACTCCGGGTAATTGAGGTACCCGGCAAGTCTATGGAGGCCGATTACTGACGAAAACTGACATATTCGCAGCTTTATGCTGCATGAGACGCAACTATACGATCAGGTATATATAAGCGCTCAAAAGCATC (double strand) [orf2-orf5 promoter]” the binding was “binds more weakly”.
For “CCCTACCGTATTTGAACGGCTGGCCAGCCCTCTGTGTCCTTGCACGCCCTTGAGTTAGGGCCTGCATGCCCCATTTGCGGGCAGAGAACACTGCCGGTTCAAAGACATTCAGGGAAAAACCTCCAGGATCGGAGCCCCGTGGTCTGGCTGGCAGTCTTTCTCACAAATGCGATCAGGTAAATTCTGGAGTCATTCGTGAAACAAGCTCAACTTCCGCGCAAGATACCCACACAAGCCCGCTCGAGG (double strand) [orf12 promoter]”, the binding was “binds”.
With “GCCCGCGTATTTCCTGAGCTCAACCTGAGCAATCACGCAGCGCCGCACTCGGTTATTTGAATGCGAGTAGCCATAGCACGGCAACTTGCCTAGGATAAGAAACAAATTGAAACGTTGTTAAAAGTGACAACTACCCGCTCAACGATGTTTCAACTTTCTTGCAATCTTCAGCCCCACAAATCAATAAAAGGACGTTCACGATGAGCAACAAGGGTTTTGACACCG (double strand) [orf9-orf6 promoter]” the binding was “binds”.
With “TCAATGGCGATCAGTACCGAGCTGTACATGGTGACGGGACCCATTCTGAATACAAAGAGCAGGCATTCTTGAAAAAGCGTGCGGCCGGGTAAATGGTGCGCGGTGCAATGACTAGTTGCGCAGAATGCAAGGGCTGGAAAACCTGCAGAAACTGGTAAGATTGCAGCGGATTCACTGAAATACATGAATGGATGCTTACCATGCACTTTCCGGATA (double strand) [orf1 promoter]” the binding was “binds”.
